The values that follow come from PMC10899256.

The target in this assay is TBC1D23 co-precipitated with GFP-tagged LKB1 (Fig. 8a) (UniProt Q9NUY8). Briefly: co-immunoprecipitation (GFP beads) from HEK293T cells, densitometry. To be noted: parent: est. 1.0; read off a plot.
Sequence of TBC1D23 co-precipitated with GFP-tagged LKB1 (Fig. 8a) (Q9NUY8 whole entry): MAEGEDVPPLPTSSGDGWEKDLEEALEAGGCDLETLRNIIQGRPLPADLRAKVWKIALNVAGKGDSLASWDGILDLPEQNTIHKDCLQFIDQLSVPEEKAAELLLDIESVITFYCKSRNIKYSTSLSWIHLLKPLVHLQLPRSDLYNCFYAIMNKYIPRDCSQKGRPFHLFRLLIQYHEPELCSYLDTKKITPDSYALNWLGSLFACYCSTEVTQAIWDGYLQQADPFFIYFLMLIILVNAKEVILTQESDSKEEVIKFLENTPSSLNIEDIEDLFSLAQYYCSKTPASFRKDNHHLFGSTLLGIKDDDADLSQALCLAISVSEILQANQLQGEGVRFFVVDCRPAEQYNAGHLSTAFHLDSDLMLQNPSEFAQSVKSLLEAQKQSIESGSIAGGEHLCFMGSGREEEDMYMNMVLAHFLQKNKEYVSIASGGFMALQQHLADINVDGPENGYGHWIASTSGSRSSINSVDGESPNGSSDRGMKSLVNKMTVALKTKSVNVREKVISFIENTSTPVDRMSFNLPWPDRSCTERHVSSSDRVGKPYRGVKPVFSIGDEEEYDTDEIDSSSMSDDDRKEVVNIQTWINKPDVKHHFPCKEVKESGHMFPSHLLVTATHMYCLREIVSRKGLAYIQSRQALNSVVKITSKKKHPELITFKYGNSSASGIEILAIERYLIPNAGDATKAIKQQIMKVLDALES

Regarding GFP-LKB1 CRD F354L, the ratio to parent is 0.82.

On to GFP-LKB1 CRD F354A, for which the ratio to parent was 0.75.
